In patent US7642046B2, “Method for monitoring recruitment of proteins to the intracellular domain of a receptor in intact cells” (priority 2001, dated 2010):

B1: TRAF1: TNF receptor associated factor 1, adaptor protein overexpressed in 293T cells from pcDNA3 (protein, UniProt Q13077 1-416, looked up)
chain: MASSSGSSPRPAPDENEFPFGCPPTVCQDPKEPRALCCAGCLSENPRNGEDQICPKCRGEDLQSISPGSRLRTQEKAHPEVAEAGIGCPFAGVGCSFKGSPQSVQEHEVTSQTSHLNLLLGFMKQWKARLGCGLESGPMALEQNLSDLQLQAAVEVAGDLEVDCYRAPCSESQEELALQHFMKEKLLAELEGKLRVFENIVAVLNKEVEASHLALATSIHQSQLDRERILSLEQRVVELQQTLAQKDQALGKLEQSLRLMEEASFDGTFLWKITNVTRRCHESACGRTVSLFSPAFYTAKYGYKLCLRLYLNGDGTGKRTHLSLFIVIMRGEYDALLPWPFRNKVTFMLLDQNNREHAIDAFRPDLSSASFQRPQSETNVASGCPLFFPLSKLQSPKHAYVKDDTMFLKCIVETST
modifications: full-length
notes: TNF receptor associated factor 1, adaptor protein overexpressed in 293T cells from pcDNA3
B2: TRAF2: TNF receptor associated factor 2, human adaptor protein expressed from pcDNA3 (protein, UniProt Q12933 1-501, looked up)
chain: MAAASVTPPGSLELLQPGFSKTLLGTKLEAKYLCSACRNVLRRPFQAQCGHRYCSFCLASILSSGPQNCAACVHEGIYEEGISILESSSAFPDNAARREVESLPAVCPSDGCTWKGTLKEYESCHEGRCPLMLTECPACKGLVRLGEKERHLEHECPERSLSCRHCRAPCCGADVKAHHEVCPKFPLTCDGCGKKKIPREKFQDHVKTCGKCRVPCRFHAIGCLETVEGEKQQEHEVQWLREHLAMLLSSVLEAKPLLGDQSHAGSELLQRCESLEKKTATFENIVCVLNREVERVAMTAEACSRQHRLDQDKIEALSSKVQQLERSIGLKDLAMADLEQKVLEMEASTYDGVFIWKISDFARKRQEAVAGRIPAIFSPAFYTSRYGYKMCLRIYLNGDGTGRGTHLSLFFVVMKGPNDALLRWPFNQKVTLMLLDQNNREHVIDAFRPDVTSSSFQRPVNDMNIASGCPLFCPVSKMEAKNSYVRDDAIFIKAIVDLTGL
modifications: full-length
notes: TNF receptor associated factor 2, human adaptor protein expressed from pcDNA3

Legend:
CD40 = target: T1, CD40 (Homo sapiens, UniProt P25942); assay: TRAF binding to CD40 in cell lysate: separately expressed extracts mixed 1:1, ELISA; details: extracts mixed 1:1, over night at 4° C.
T1 construct: expressed in transfected cells; host or cells: HEK 293T
T1 sequence (P25942 21-277): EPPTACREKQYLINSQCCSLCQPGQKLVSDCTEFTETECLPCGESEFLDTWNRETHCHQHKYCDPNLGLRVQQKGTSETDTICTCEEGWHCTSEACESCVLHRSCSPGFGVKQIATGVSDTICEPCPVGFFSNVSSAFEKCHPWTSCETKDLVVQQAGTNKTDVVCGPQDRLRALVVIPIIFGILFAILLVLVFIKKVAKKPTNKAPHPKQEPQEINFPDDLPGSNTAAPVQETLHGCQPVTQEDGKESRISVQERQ
From the text: To measure TRAF recruitment to CD40 many studies relied on experimental systems that probe TRAF binding to synthetic peptides or soluble fragments of the CD40 signaling domain (Rothe et al. 1994, Hu et al. 1994, Cheng et al. 1995, Mosialos et al. 1995, Ishida et al. it 1996, Ishida et al. b 1996, Boucher et al. 1997, Pullen et al. 1998 and Pullen et al. 1999). […] Therefore, recruitment of TRAF1 and TRAF2 by CD40 intact cells versus cell lysate was compared. In the experiment, CD40 and TRAF1 or TRAF2 were co-expressed or expressed separately in 293T cells (constructs described in example 7 below). Plasmid concentrations and ratios were identical to the experiment described in example 1. After 27 hours, the cells were detergent lysed as in example 1. The extracts from 293T cells expressing only CD40 or the TRAF of interest were mixed at a 1:1 ratio and incubated over night at 4° C. Extracts expressing both CD40 and the TRAF of interest were kept under identical conditions. Then the samples were incubated on microtiter plates coated with a mAb against the extra-cellular domain of CD40 as described in example 1. After a washing step, CD40 bound TRAFs were detected with anti TRAF antibodies (example 1). Quantitation of TRAF recruited to CD40 was carried out as described in the example 3 below.

LTβR = target: T2, LTβR (Homo sapiens, UniProt P25942+P36941); assay: Recruitment assay with hybrid receptor (CD40 extracellular domain, LTβR transmembrane and intracellular domain); type: cell-based; details: 293T cells, CD40 as relative standard
T2 construct: cDNA fragments encoding for the transmembrane and cytoplasmic domains of the LTβR, TACI, the p75TNF receptor, CD27; expressed in transfected cells; host or cells: 293T
T2 sequence (P25942+P36941 fused): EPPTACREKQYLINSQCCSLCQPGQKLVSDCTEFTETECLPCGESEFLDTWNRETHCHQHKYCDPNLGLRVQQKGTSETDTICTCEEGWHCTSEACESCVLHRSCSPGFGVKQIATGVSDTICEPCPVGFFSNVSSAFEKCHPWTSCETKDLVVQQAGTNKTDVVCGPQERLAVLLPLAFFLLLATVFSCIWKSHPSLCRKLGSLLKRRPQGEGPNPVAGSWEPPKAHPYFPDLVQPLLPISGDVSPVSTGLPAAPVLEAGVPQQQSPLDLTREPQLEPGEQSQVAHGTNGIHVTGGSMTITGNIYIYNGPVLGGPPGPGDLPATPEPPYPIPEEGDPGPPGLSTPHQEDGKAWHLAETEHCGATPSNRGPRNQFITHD
Procedure: The recruitment of TRAF to CD40 can be quantitatively measured using the assay described in example 1. For that purpose, the assay conditions were adjusted in such a way that TRAF expression was in significant excess over the expression of CD40. This was the case when the TRAF expression plasmid was used at a two to three fold excess over the CD40 expression plasmid. The CD40 bound TRAF concentration was measured as described in example 1. A reference extract containing CD40/TRAF complexes served as a standard in each assay. This standard extract consisted of a large pool extract from cells that had been co-transfected with the plasmids encoding CD40/TRAF1, CD40/TRAF2, CD40/TRAF3, CD40/TRAF5 and CD40/TRAF6. The extracts were tested for the presence of CD40/TRAF complexes and the complex concentrations in each extract were arbitrarily defined as 1000 U/ml. The extracts were frozen in small aliquots and kept at −80° C. until further use. By comparing unknown samples to these extracts, it was possible to determine the relative CD40-TRAF complex concentrations in arbitrary units. The necessary normalization for sample-to-sample variations in the CD40 expression was calculated with the following formula: […]
Recruitment of various TRAFs to receptors different to CD40, was tested by the recruitment assay described in example 1 by transforming cells with expression plasmids encoding hybrids receptors comprising the extracellular domain of CD40 and transmembrane and intracellular domain of anyone of the following receptors: BCMA (Madry et al. 1998 and Hatzoglou et al. 2000) the LTβR-receptor (Mosialos et al. 1995, Crowe et al. 1994, Nakano et al. 1996), TACI (von Bulow et al. 1997, Xia et al. 2000) the p75TNFR (Rothe et al. 1994) and the CD27 (Gravestein et al. 1998, Akiba et al. 1998) (for details of constructs see example 7). Measurement of TRAF recruitment to the signalling domains of BCMA the LTβR-receptor TACI the p75TNFR or the CD27 was carried out by co-transfecting 293T cells with a plasmid encoding anyone of the above hybrid receptors together with a plasmid encoding TRAF and measurement of the TRAF/Receptor complex using the ELISA sandwich described in example 1 and the quantitation as described in example 3. The assay with the hybrid receptors is schematically represented in FIG. 4A. The results shown in FIG. 4B indicate that, using the assay monitoring recruitment in intact cells, any TRAF recruiting receptor of the TNF/NGF family can be examined with the same antibody sandwich assay described in example 1 and the amount of TRAF-receptor/CD40 hybrid complex can be monitored as described in example 3. […] Recruitment of TRAF3 to all the receptors tested is similar. […]

Row | Molecule | binding to CD40 in cell lysate (CD40) | recruitment to LTβR, folds higher than recruitment to CD40 (LTβR)
1 | B1 | barely detectable | 25 fold
2 | B2 | barely detectable | about 60 fold
